Ends that are not written are not given here. Me3 = trimethyl-lysine; Me2 = dimethyl-lysine
T1: MLL4 PHD1–3 (residues 156–341) (UniProt O14686 156-341)
T1 construct: MLL4 (KMT2D, ALR), PHD fingers 1–3, residues 156–341; Detected on the array with anti-6xHis-HRP; The purification of the PHD constructs is not described separately; also called MLL4 PHD1–3 cassette; KMT2D PHD1–3; source: bacterially expressed recombinant
T1 sequence (looked up): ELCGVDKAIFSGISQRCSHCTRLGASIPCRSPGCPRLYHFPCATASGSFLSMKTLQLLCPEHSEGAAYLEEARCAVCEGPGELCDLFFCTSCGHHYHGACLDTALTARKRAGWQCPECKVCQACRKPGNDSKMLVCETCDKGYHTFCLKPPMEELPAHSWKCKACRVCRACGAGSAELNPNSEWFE

B1: CFP1 K335me2 peptide (peptide, UniProt Q9P0U4 325-345, looked up)
peptide: VKVKHVKRREK(Me2)KSEKKKEERY
notes: CFP1 (CXXC finger protein 1), human, peptide centred on K335 with 10 flanking residues on each side; held on the cellulose membrane of the array; source: synthetic peptide, SPOT synthesis on cellulose membrane
B2: CFP1 K331me1 peptide (peptide, UniProt Q9P0U4 321-341, looked up)
peptide: RKRAVKVKHVK(Me)RREKKSEKKK
notes: CFP1 (CXXC finger protein 1), human, peptide centred on K331 with 10 flanking residues on each side; held on the cellulose membrane of the array; also called K331 Kme1; source: synthetic peptide, SPOT synthesis on cellulose membrane
B3: CFP1 K335me0 peptide (peptide, UniProt Q9P0U4 325-345, looked up)
peptide: VKVKHVKRREKKSEKKKEERY
notes: CFP1 (CXXC finger protein 1), human, peptide centred on K335 with 10 flanking residues on each side; held on the cellulose membrane of the array; also called unmethylated K335; source: synthetic peptide, SPOT synthesis on cellulose membrane
B4: CFP1 K335me1 peptide (peptide, UniProt Q9P0U4 325-345, looked up)
peptide: VKVKHVKRREK(Me)KSEKKKEERY
notes: as for B1
B5: CFP1 K335me3 peptide (peptide, UniProt Q9P0U4 325-345, looked up)
peptide: VKVKHVKRREK(Me3)KSEKKKEERY
notes: as for B1
B6: CFP1 K339me1 peptide (peptide, UniProt Q9P0U4 329-349, looked up)
peptide: HVKRREKKSEK(Me)KKEERYKRHR
notes: CFP1 (CXXC finger protein 1), human, peptide centred on K339 with 10 flanking residues on each side; held on the cellulose membrane of the array; source: synthetic peptide, SPOT synthesis on cellulose membrane
B7: CFP1 K340me3 peptide (peptide, UniProt Q9P0U4 330-350, looked up)
peptide: VKRREKKSEKK(Me3)KEERYKRHRQ
notes: CFP1 (CXXC finger protein 1), human, peptide centred on K340 with 10 flanking residues on each side; held on the cellulose membrane of the array; source: synthetic peptide, SPOT synthesis on cellulose membrane
B8: CFP1 K351me2 peptide (peptide, UniProt Q9P0U4 341-361, looked up)
peptide: KEERYKRHRQK(Me2)QKHKDKWKHP
notes: CFP1 (CXXC finger protein 1), human, peptide centred on K351 with 10 flanking residues on each side; held on the cellulose membrane of the array; source: synthetic peptide, SPOT synthesis on cellulose membrane

Target: T1, MLL4 PHD1–3 (residues 156–341)
Assay: peptide or protein array; SPOT peptides on cellulose membrane; 1 μM 6xHis-tagged MLL4 PHD cassette in TBS-T overnight at 4 °C; probed with anti-6xHis-HRP, chemiluminescence; signals relative to the H4K20me0 peptide (100%), spots of at least 50% taken as candidate binders
Conditions: both partners purified

Binder | binding result
B1 | binds
B2 | binds
B3 | binds
B4 | binds
B5 | binds
B6 | binds

Target: T2, MLL4 PHD4–6 (residues 1358–1572) (UniProt O14686 1358-1572)
T2 construct: MLL4 (KMT2D, ALR), PHD fingers 4–6, residues 1358–1572; Detected on the array with anti-6xHis-HRP; The purification of the PHD constructs is not described separately; also called MLL4 PHD4–6 cassette; KMT2D PHD4–6; source: bacterially expressed recombinant
Assay: as above
Conditions: both partners purified

T2 sequence (O14686 1358-1572): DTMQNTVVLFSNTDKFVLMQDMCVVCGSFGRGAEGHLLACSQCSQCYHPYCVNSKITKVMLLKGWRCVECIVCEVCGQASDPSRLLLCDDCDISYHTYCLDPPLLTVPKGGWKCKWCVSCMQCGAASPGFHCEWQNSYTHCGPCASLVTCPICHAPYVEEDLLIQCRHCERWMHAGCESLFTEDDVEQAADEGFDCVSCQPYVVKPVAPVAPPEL

Binder | binding result
B1 | binds
B7 | binds
B3 | binds
B4 | binds
B5 | binds
B8 | binds

Target: T3, MLL4 PHD7 (residues 5079–5152) (UniProt O14686 5079-5152)
T3 construct: MLL4 (KMT2D, ALR), PHD finger 7, residues 5079–5152; Detected on the array with anti-6xHis-HRP; The purification of the PHD constructs is not described separately; also called KMT2D PHD7; source: bacterially expressed recombinant
Assay: as above
Conditions: both partners purified

T3 sequence (O14686 5079-5152): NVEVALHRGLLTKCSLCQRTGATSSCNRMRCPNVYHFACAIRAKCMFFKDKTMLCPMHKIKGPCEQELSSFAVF

Binder | binding result
B3 | binds

Source: publication PMC12551112, “Exploration into the MLL4/WRAD Enzyme-Substrate Network: Systematic In Vitro Identification of CFP1 as a Potential Non-Histone Substrate of the MLL4 Lysine Methyltransferase” (Epigenomes, 2025)
